{"source": "patent US20250163117A1", "about": "(CURE GENETICS, published 2025)", "binders": {"B1": {"name": "CP-trIL-2 012 (ligand)", "chain": "PTSSSTKKTQLQLEHLLLDLQMILNGINNYKNPLRPRDLISNINVIVLELKGSETTELKHLQSLEEELKDLEEVLNLAQSKNFHTIVEFLNRWITFSQSIISTLT", "notes": "H1-H3-H2-H4; loops 1 and 2 removed; de-Ala1, C58S, C125S, P65D"}}, "assay_in_all_cases": "cell-based or functional assay", "key": {"[1]": {"molecular_target": "T1, mouse intermediate-affinity IL-2 receptor IL-2Rβγ on cells (mouse, UniProt P16297 27-539; P34902 23-369)", "T1 sequence (looked up) 1": "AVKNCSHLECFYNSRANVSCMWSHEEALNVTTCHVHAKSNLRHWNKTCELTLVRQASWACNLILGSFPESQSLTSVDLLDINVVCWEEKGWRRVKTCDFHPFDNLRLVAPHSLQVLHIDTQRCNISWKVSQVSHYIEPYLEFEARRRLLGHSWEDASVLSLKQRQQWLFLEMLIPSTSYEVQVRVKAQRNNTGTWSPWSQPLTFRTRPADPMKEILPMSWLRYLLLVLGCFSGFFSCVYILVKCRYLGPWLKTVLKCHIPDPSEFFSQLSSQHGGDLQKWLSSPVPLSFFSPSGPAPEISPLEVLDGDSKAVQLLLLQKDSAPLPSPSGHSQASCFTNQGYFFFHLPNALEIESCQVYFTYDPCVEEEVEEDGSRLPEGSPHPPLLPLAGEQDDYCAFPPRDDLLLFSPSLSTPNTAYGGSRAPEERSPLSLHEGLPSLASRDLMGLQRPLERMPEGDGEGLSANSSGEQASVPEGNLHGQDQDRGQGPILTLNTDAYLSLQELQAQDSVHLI", "T1 sequence (looked up) 2": "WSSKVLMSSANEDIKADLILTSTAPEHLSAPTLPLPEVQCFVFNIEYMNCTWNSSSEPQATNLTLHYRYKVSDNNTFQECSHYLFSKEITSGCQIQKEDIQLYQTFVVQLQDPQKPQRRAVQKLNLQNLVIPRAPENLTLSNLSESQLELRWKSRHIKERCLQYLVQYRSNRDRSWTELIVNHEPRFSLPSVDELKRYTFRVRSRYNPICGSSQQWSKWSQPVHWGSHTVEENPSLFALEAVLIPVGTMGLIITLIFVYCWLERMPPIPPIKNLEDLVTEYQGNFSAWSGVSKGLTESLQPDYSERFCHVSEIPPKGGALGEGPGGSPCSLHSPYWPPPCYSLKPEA"}, "[2]": {"molecular_target": "T2, mouse high-affinity IL-2 receptor IL-2Rαβγ on cells (mouse, UniProt P01590 22-268; P16297 27-539; P34902 23-369)", "T2 sequence (looked up) 1": "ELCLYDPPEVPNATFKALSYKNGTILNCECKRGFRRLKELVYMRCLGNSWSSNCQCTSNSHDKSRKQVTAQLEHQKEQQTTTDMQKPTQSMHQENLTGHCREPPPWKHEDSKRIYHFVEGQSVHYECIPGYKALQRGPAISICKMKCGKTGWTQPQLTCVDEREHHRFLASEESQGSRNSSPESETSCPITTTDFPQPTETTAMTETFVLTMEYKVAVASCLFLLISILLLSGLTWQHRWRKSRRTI", "T2 sequence (looked up) 2": "T1 sequence (looked up) 1", "T2 sequence (looked up) 3": "T1 sequence (looked up) 2"}, "[3]": {"molecular_target": "T3, human high-affinity IL-2 receptor IL-2Rαβγ on cells (human, UniProt P01589 22-272; P14784 27-551; P31785 23-369)", "T3 sequence (looked up) 1": "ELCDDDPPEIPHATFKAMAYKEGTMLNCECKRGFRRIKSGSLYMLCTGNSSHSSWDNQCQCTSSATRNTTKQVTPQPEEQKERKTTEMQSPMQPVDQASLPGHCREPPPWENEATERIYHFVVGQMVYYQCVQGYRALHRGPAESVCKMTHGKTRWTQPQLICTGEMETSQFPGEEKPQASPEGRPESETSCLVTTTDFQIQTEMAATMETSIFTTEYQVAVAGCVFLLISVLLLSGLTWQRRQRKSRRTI", "T3 sequence (looked up) 2": "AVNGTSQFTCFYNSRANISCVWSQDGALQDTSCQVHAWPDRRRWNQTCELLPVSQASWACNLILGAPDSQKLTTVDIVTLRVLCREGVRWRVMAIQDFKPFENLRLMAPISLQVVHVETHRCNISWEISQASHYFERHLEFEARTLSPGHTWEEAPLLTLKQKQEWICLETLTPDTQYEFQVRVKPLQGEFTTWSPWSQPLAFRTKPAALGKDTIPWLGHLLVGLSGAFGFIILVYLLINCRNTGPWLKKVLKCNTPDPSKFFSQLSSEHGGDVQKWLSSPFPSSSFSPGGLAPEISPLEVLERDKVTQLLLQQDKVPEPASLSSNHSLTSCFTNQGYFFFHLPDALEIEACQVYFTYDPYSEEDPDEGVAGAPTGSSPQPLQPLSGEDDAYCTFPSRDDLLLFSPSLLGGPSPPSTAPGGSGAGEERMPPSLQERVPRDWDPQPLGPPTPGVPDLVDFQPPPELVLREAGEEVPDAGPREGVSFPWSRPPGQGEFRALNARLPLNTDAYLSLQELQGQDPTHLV", "T3 sequence (looked up) 3": "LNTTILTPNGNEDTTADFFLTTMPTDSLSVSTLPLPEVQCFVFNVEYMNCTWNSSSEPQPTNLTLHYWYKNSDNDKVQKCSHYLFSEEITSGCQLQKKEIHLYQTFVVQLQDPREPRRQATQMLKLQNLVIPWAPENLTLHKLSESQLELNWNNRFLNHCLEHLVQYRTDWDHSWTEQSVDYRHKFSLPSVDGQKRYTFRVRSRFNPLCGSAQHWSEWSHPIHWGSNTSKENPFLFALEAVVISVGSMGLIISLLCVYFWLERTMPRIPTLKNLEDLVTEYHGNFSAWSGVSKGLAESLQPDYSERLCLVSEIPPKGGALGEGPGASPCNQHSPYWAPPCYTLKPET"}, "[4]": {"molecular_target": "T4, human intermediate-affinity IL-2 receptor IL-2Rβγ on cells (human, UniProt P14784 27-551; P31785 23-369)", "T4 sequence (looked up) 1": "T3 sequence (looked up) 2", "T4 sequence (looked up) 2": "T3 sequence (looked up) 3"}, "[5]": {"molecular_target": "T1, mouse intermediate-affinity IL-2 …", "remark": "listed apart in the source"}, "[6]": {"molecular_target": "T2, mouse high-affinity IL-2 receptor …", "remark": "listed apart in the source"}, "[7]": {"molecular_target": "T4, human intermediate-affinity IL-2 …", "remark": "listed apart in the source"}}}
{"binder": "B1", "values": [{"measurement": "% pSTAT5 in mouse splenocytes at High IL-2v concentration (25 nM per paragraph 254); western blot, pSTAT5/STAT5 normalised to 001 High", "setting": "[1]", "result": 126, "unit": "%"}, {"measurement": "% pSTAT5 in mouse splenocytes at Low IL-2v concentration (2.5 nM per paragraph 254); western blot, pSTAT5/STAT5 normalised to 001 High", "setting": "[2]", "result": 22.8, "unit": "%"}, {"measurement": "EC50 of STAT5 activation, human Tregs (flow cytometry)", "setting": "[3]", "result": 7.91, "unit": "nM"}, {"measurement": "EC50 of STAT5 activation, human CD8 T cells (flow cytometry)", "setting": "[4]", "result": 18.6, "unit": "nM"}, {"measurement": "EC50 of STAT5 activation, human NK cells (flow cytometry)", "setting": "[4]", "result": 5.11, "unit": "nM"}, {"measurement": "EC50 of STAT5 activation, mouse CD8 T cells (flow cytometry)", "setting": "[5]", "result": 91.8, "unit": "nM"}, {"measurement": "EC50 of STAT5 activation, mouse NK cells (flow cytometry)", "setting": "[5]", "result": 84, "unit": "nM"}, {"measurement": "EC50 of STAT5 activation, mouse Tregs (flow cytometry)", "setting": "[6]", "result": 52, "unit": "nM"}, {"measurement": "EC50 (read off the curve): STAT5 phosphorylation in HH cells", "setting": "[7]", "result": "~6", "unit": "nM"}]}
